In article PMC12613146 one finds kon data, which are given here for 1 substance.

Where “and” joins values, the source holds several entries; their conditions need not be identical. Equal entries are not always repeated.

The assay concerns the target ectodomain of the epidermal growth factor receptor, EGFR25-645 (human). Nature of the assay: BLI; biotinylated ligand (50 nM, 5 min) on streptavidin sensors, DDM proteomicelles of the membrane protein in the wells (six two-fold dilutions); 20 mM Tris-HCl, 300 mM KCl, 0.2% (w/v) DDM, 1 mg/ml BSA, pH 7.5; 22 °C; global fits, KD = koff/kon. (In BLI a coated tip is dipped into the sample, and binding shifts an interference pattern.)

Chain of TGF-α(GGS)2tFhuA (chain): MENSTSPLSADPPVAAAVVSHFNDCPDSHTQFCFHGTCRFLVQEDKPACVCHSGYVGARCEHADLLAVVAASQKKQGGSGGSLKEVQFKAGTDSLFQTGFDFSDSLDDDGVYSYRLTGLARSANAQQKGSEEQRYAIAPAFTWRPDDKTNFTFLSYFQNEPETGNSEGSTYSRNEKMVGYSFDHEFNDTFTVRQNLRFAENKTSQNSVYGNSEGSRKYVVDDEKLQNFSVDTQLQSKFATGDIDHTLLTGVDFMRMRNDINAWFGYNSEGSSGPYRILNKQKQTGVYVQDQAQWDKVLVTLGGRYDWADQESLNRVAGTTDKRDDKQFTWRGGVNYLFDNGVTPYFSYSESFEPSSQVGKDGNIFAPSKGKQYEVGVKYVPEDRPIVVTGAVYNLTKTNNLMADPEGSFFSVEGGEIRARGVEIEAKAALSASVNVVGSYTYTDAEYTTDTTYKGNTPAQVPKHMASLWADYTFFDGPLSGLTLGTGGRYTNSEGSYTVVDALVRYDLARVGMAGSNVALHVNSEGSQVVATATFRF

Turning to TGF-α(GGS)2tFhuA, the kon (commonly a measure of how fast the partners come together) was 2600 M⁻¹ s⁻¹ and 2400 M⁻¹ s⁻¹ and 2500 M⁻¹ s⁻¹.
